# Assay results published in patent US20140370030A1 (CENTRE NATIONAL DE LA RECHERCHE SCIENTIFIQUE CNRS, published 2014).
# B1: monoclonal anti-sPLA2-X antibody #8D9 (antibody, V domains shown)
# VH: EVKLVESGGGLVKPGGSLKLSCAASGFTFSNYPMSWVRQTPAKRLEWVATISSGGDDTYYPDSVKGRFTISRDNARNTLYLQMSCLRSEDTALYYCARPQLGPWGQGTTLTVSS
# VL: DIVMTQAAPSVPVTPGDSVSISCRSSKSLLHSNGITYLYWFLQRPGQSPQRLIYYMSNLASGVPDRFSGRGSGTDFTLRISRVEAEDVGVYYCMQSLEYPLTFGAGTKLELKR
# notes: Mouse monoclonal antibody from a hybridoma, purified by protein A; also called 8D9 antibody; hybridoma CNCM I-4523
# B2: biotinylated monoclonal antibody #8D9 (antibody, V domains shown)
# VH: B1 VH
# VL: B1 VL
# modifications: biotinylated (Pierce kit ref. 21435); sites not stated
# notes: also called #8D9-Biot; 8D9-biot
# B3: biotinylated monoclonal antibody #9C12 (antibody, V domains shown)
# VH: QIQLVQSGPELKKPGETVKISCKASGYTFTNYGMNWVKQAPGKGLKWMGWIKTNTGEPTYAEEFKGRFAFSLETSASTAYLQINNLKNEDTATYFCARGNYYRPRRYFDYWGQGTTLTVSS
# VL: DIQMSQSPASLSASVGETVTMTCRASENLYSNLAWYQQKQGKSPQLLVYAATNLADGVPSRFSGSGSGTQFSLKINSLQPEDFGSYYCQHFYVTPYTFGGGTKLEIKR
# modifications: biotinylated (Pierce kit ref. 21435); sites not stated
# notes: also called #9C12-Biot
# B4: monoclonal anti-sPLA2-X antibody #9C12 (antibody, V domains shown)
# VH: B3 VH
# VL: B3 VL
# notes: Mouse monoclonal antibody from a hybridoma, purified by protein A; also called 9C12 antibody; hybridoma CNCM I-4524
# What was measured:
# [1] = biological target: recombinant human sPLA2-X (human group X secreted phospholipase A2), mature enzyme (human) (UniProt O15496); test: indirect ELISA on wells coated with 50 ng recombinant human sPLA2-X; one-site saturation fit, relative Kd
# [2] = biological target: T1, recombinant human sPLA2-X (human group X secreted phospholipase A2), mature enzyme (human, UniProt O15496 43-165); test: indirect ELISA on coated recombinant human sPLA2-X, anti-mouse IgG-HRP detection; one-site saturation fit
# T1 construct: also called hGX
# T1 sequence: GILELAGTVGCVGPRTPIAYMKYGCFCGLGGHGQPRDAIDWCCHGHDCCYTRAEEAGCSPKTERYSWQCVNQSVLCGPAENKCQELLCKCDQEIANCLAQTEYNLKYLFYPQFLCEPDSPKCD
# [3] = biological target: T1, recombinant human sPLA2-X (human group …); test: indirect ELISA on wells coated with 50 ng recombinant human sPLA2-X; one-site saturation fit, relative Kd
# [4] = biological target: T1, recombinant human sPLA2-X (human group …); test: indirect ELISA on coated recombinant human sPLA2-X, streptavidin-HRP detection; one-site saturation fit
# [5] = biological target: T1, recombinant human sPLA2-X (human group …); test: indirect ELISA on coated recombinant human sPLA2-X
molecule,measurement,setting,value
"commercially available monoclonal antibody H9 (ref. SC-365730, Santa Cruz Biotechnology)",Kd,[1],8.94 nM
B1,Kd,[2],0.246 nM
same,Kd,[3],0.327 nM
B2,Kd,[4],0.353 nM
B3,binding result,[5],binds
B4,Kd,[3],0.181 nM
